Reference: article PMC2818599

Biological target: HLA-DR DRB1 *1101 (human)
Test: radioligand binding

IC50: 30 nM
Substance: HER-2/neu.59 (peptide)
